The text below walks through data of patent publication US20150037339A1 (Regeneron, published 2015).

Assay [1] addresses T1, Activin AC (human, UniProt P55103 237-352).
T1 construct: Heterodimer of one betaA and one betaC subunit; bought (R&D Systems #4879-AC)
T1 sequence 1: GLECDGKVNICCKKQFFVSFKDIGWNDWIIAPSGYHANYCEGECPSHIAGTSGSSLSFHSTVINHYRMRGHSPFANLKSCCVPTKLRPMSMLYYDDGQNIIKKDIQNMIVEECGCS
T1 sequence 2: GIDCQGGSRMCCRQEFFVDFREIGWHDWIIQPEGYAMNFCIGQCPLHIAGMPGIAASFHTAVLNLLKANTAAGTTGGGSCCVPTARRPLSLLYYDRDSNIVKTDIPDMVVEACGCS
The assay is described as follows: SPR (Biacore), mAb captured on anti-Fc, Activin AC injected, 25 C. As to the method: (§1) Antibody-antigen association was monitored for 240 seconds while dissociation in buffer was monitored for 600 seconds. Kinetic association and dissociation rate constants were determined by processing and fitting the data using Scrubber software version 2.0c. Binding equilibrium dissociation constants (KD) and dissociative half-lives (t_{1/2}) were then calculated from the kinetic rate constants as: KD (M)=kd/kₐ and t_{1/2} (min)=[ln 2/(60*kd)]. (NB=no binding observed under the conditions used; NT=not tested).
On the technique in general: Surface plasmon resonance follows binding to a sensor surface in real time, without labels.

Assay [2] has as its target T2, Activin AB (human, UniProt P08476 311-426; P09529 293-407).
T2 construct: Heterodimer of one betaA and one betaB subunit; bought (R&D Systems #1006-AB-005 / #1066-AB)
T2 chain 1: T1 sequence 1
T2 chain 2: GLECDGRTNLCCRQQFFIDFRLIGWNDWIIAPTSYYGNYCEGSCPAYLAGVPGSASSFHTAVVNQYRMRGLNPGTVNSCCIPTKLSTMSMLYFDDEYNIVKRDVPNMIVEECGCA
The assay is described as follows: SPR (Biacore), mAb captured on anti-Fc, Activin AB injected, 25 C. As to the method: as §1

Assay [3] has as its target T3, Activin B (human, UniProt P09529 293-407).
T3 chain: T2 chain 2
The assay is described as follows: cell-based or functional assay.

For assay [4], the target named is T4, Activin A (human, UniProt P08476 311-426).
T4 sequence: T1 sequence 1
Put plainly: cell-based or functional assay.

Assay [5] deals with T1, Activin AC. Put plainly: cell-based or functional assay.
Assay [6] has as its target T2, Activin AB. The assay is described as follows: cell-based or functional assay.
The target of assay [7] is T1, Activin AC. The assay is described as follows: SPR (Biacore), mAb captured on anti-Fc, Activin AC injected, 37 C. How it is done:
as §1

Assay [8] has as its target T2, Activin AB. The assay is described as follows: SPR (Biacore), mAb captured on anti-Fc, Activin AB injected, 37 C. As to the method:
as §1

For assay [9], the target named is T5, Activin A (homodimer of two inhibin βA subunits; R&D Systems, #338-AC) (human, UniProt P08476 311-426).
T5 construct: Bought protein; also called inhibin-βA dimer
T5 sequence: T1 sequence 1
Put plainly: SPR blocking: 5 nM Activin A + 15 nM binder over hActRIIA-hFc surface. How it is done: (§2) The binding signal (RU) was measured at 150 seconds after the start of the injection, and this signal was subtracted by the measured RU value for a negative control reference surface to determine the specific binding signal.

The target of assay [10] is T5, Activin A (homodimer of two inhibin βA …). Put plainly: SPR blocking: 5 nM Activin A + 30 nM binder over hActRIIA-hFc surface. How it is done: as §2
For assay [11] the target is unchanged. Put plainly: SPR blocking: 5 nM Activin A + 7.50 nM binder over hActRIIA-hFc surface. How it is done: as §2
For assay [12] the target is unchanged. Put plainly: SPR blocking: 5 nM Activin A + 15 nM binder over hActRIIB-hFc (Control 4) surface.
Assay [13] has the same target. The assay is described as follows: SPR blocking: 5 nM Activin A + 15 nM binder over Follistatin-288 surface. How it is done:
as §2

For assay [14] the target is unchanged. Put plainly: SPR blocking: 5 nM Activin A + 30 nM binder over hActRIIB-hFc (Control 4) surface. How it is done: as §2
For assay [15] the target is unchanged. Put plainly: SPR blocking: 5 nM Activin A + 0.94 nM binder over hActRIIB-hFc (Control 4) surface.
The target is the same in assay [16]. The assay is described as follows: SPR blocking: 5 nM Activin A + 3.75 nM binder over Follistatin-288 surface. How it is done:
as §2

Assay [17] shares this target. Put plainly: SPR blocking: 5 nM Activin A + 3.75 nM binder over hActRIIA-hFc surface. As to the method:
as §2

Assay [18] shares this target. Put plainly: SPR blocking: 5 nM Activin A + 60 nM binder over hActRIIB-hFc (Control 4) surface. As to the method: as §2
Assay [19] shares this target. The assay is described as follows: SPR blocking: 5 nM Activin A + 60 nM binder over Follistatin-288 surface. How it is done: as §2
For assay [20] the target is unchanged. Put plainly: SPR blocking: 5 nM Activin A + 0.94 nM binder over hActRIIA-hFc surface. How it is done:
as §2

Assay [21] shares this target. Put plainly: SPR blocking: 5 nM Activin A + 1.88 nM binder over hActRIIA-hFc surface. As to the method:
as §2

The target is the same in assay [22]. The assay is described as follows: SPR blocking: 5 nM Activin A + 0.00 nM binder over hActRIIB-hFc (Control 4) surface. As to the method: as §2
Assay [23] shares this target. Put plainly: SPR blocking: 5 nM Activin A + 7.50 nM binder over hActRIIB-hFc (Control 4) surface.
Assay [24] has the same target. The assay is described as follows: SPR blocking: 5 nM Activin A + 1.88 nM binder over hActRIIB-hFc (Control 4) surface. As to the method: as §2
For assay [25] the target is unchanged. The assay is described as follows: SPR blocking: 5 nM Activin A + 60 nM binder over hActRIIA-hFc surface. How it is done: as §2
The target is the same in assay [26]. The assay is described as follows: SPR blocking: 5 nM Activin A + 0 nM binder over Follistatin-288 surface. As to the method:
as §2

Assay [27] shares this target. The assay is described as follows: SPR blocking: 5 nM Activin A + 0.00 nM binder over hActRIIA-hFc surface. How it is done: as §2
The target is the same in assay [28]. The assay is described as follows: SPR blocking: 5 nM Activin A + 3.75 nM binder over hActRIIB-hFc (Control 4) surface. How it is done: as §2
Assay [29] has the same target. The assay is described as follows: SPR blocking: 5 nM Activin A + 1.88 nM binder over Follistatin-288 surface. As to the method: as §2
Assay [30] shares this target. Put plainly: SPR blocking: 5 nM Activin A + 0.94 nM binder over Follistatin-288 surface. How it is done:
as §2

Assay [31] shares this target. Put plainly: SPR blocking: 5 nM Activin A + 7.5 nM binder over Follistatin-288 surface. How it is done: as §2
For assay [32] the target is unchanged. The assay is described as follows: SPR blocking: 5 nM Activin A + 30 nM binder over Follistatin-288 surface. How it is done: as §2

B1: H4H10440P2 (antibody, human IgG4, V domains shown)
VH: EVQLVESGGGVVQPGGSLRLSCAASTFTFDDFAMHWVRQAPGKGLEWVSLITGDGGSTYYADPVKGRFTISRDNSKNSLYLQMNSLRTEDTALYYCVKDWWIAARPDYYYYGMDVWGQGTTVTVSS
VL: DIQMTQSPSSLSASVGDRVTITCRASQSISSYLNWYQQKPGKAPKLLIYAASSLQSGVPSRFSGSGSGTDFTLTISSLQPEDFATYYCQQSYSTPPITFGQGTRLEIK
Take B1: in assay [1], the “50 nM Ag Bound (RU)” value came out at 11.8 RU; the Kd (commonly the equilibrium constant for the complex coming apart) is 0.442 nM; the koff (usually the rate constant with which the complex falls apart) came out at 0.000227 s⁻¹; the kon (in general, the second-order rate constant of association) is 513000 M⁻¹ s⁻¹. Further, in assay [1], the t1/2 stood at 50.8 min. In addition, in assay [2], the “50 nM Ag Bound (RU)” value was determined as 15.5 RU, binding was put at a Kd of 0.177 nM, the koff was found to be 0.000526 s⁻¹ and the association rate constant (kon) is 2.97e+06 M⁻¹ s⁻¹. For the same molecule, in assay [2], the t1/2 was 22 min. Further, the “IC50 [M], inhibition of 50 pM Activin B in A204/CAGAx12-Luc Smad2/3-luciferase bioassay” value in assay [3] was found to be 5.2e-09 M. The “IC50 [M], inhibition of 100 pM Activin A in A204/CAGAx12-Luc Smad2/3-luciferase bioassay” value in assay [4] was 2.8e-10 M. Moreover, the “IC50 [M], inhibition of 4 nM Activin AC in A204/CAGAx12-Luc Smad2/3-luciferase bioassay” value in assay [5] is 7.5e-10 M. The “IC50 [M], inhibition of 30 pM Activin AB in A204/CAGAx12-Luc Smad2/3-luciferase bioassay” value in [6] was 4.3e-10 M. Besides, in [7], the “50 nM Ag Bound (RU)” value worked out at 13.3 RU, the Kd came out at 1.05 nM, the koff is 0.000755 s⁻¹ and the kon was 718000 M⁻¹ s⁻¹. Besides, in assay [7], the t1/2 was 15.3 min. In addition, in [8], the “50 nM Ag Bound (RU)” value was 17.7 RU, binding was put at a Kd of 0.314 nM, the koff was 0.00163 s⁻¹ and the association rate constant (kon) is 5.2e+06 M⁻¹ s⁻¹. This molecule gave a t1/2 in [8] of 7.1 min.

B2: H4H10433P2 (antibody, human IgG4, V domains shown)
VH: EVQLVESGGGLVQAGRSLRLSCEASGFTFDDYGMHWVRQGPGKGLEWVSGISWNSGNIDYADSVKGRFTISRDNAKTSLYLQMNSLKTDDTALYFCAKDAVGFNWNYFLFDYWGQGTLVTVSS
VL: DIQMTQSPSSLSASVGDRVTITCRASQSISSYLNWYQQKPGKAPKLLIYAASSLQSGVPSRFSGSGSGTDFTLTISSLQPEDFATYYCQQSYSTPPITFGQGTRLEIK
With B2, the “IC50 [M], inhibition of 50 pM Activin B in A204/CAGAx12-Luc Smad2/3-luciferase bioassay” value in [3] turned out to be 1e-07 M. For the same molecule, the “IC50 [M], inhibition of 100 pM Activin A in A204/CAGAx12-Luc Smad2/3-luciferase bioassay” value in assay [4] was 1.5e-10 M.

B3: H4H10423P (antibody, human IgG4, V domains shown)
VH: QVQLQQSGPGLLKPSQTLSLTCAISGDSVSSNSAAWSWIRQSPSRGLEWLGRTYYRANWFNDYALSVKSRITINPVTSTNHFSLQLHSVTPEDTAVYYCAREGALGYYFDSWGQGTLVTVSS
VL: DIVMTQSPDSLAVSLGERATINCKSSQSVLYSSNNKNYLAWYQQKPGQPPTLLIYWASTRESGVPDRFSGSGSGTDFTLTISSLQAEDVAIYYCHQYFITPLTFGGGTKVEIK
notes: H4H prefix means human IgG4 Fc
As for B3, the “% bound RU w/no inhibitor” value in [9] was determined as 112%; in assay [10], 114%; in assay [11] it was 110%; in assay [12], 42%; in assay [13] it was 96%; in assay [14] it was 41%. Also, the “% bound RU w/no inhibitor” value in assay [15] worked out at 93%; in assay [16], 103%; in assay [17] it was 111%; in assay [18] it was 41%; in assay [19] it was 93%; in assay [20], 112%. For the same molecule, the “% bound RU w/no inhibitor” value in assay [21] turned out to be 114%; in assay [22], 100%; in assay [23], 42%; in assay [24], 78%; in assay [25], 116%; in assay [26], 100%. Further, the “% bound RU w/no inhibitor” value in assay [27] was 100%; in [28], 47%; in assay [29], 122%; in assay [30], 120%; in assay [31], 97%; in assay [32], 94%.
